{
  "source": "paper PMC10960309",
  "experiment_in_all_cases": "purified protein",
  "conditions_in_all_cases": "50 mM sodium borate pH 9.5, 37°C, 1.9 mM OPA, 1 mM DTT, 5% DMSO",
  "key": {"[1]": {"substrate": "CCCCCCCCCC(=O)N[C@H]1CCOC1=O"}, "[2]": {"substrate": "CCCCCCCCCCCC(=O)N[C@H]1CCOC1=O"}, "[3]": {"substrate": "CCCCCCCCCC(=O)CC(=O)N[C@H]1CCOC1=O"}, "[4]": {"substrate": "CCCCCCCC(=O)N[C@H]1CCOC1=O"}},
  "data": [
    {"protein": "PvdQ (Pseudomonas aeruginosa PAO1) (protein) chain 1: DMPRPTGLAADIRWTAYGVPHIRAKDERGLGYGIGYAYARDNACLLAEEIVTARGERARYFGSEGKSSAELDNLPSDIFYAWLNQPEALQAFWQAQTPAVRQLLEGYAAGFNRFLREADGKTTSCLGQPWLRAIATDDLLRLTRRLLVEGGVGQFADALVAAAPPGAEKV chain 2: SNAIAVGSERSADGKGMLLANPHFPWNGAMRFYQMHLTIPGRLDVMGASLPGLPVVNIGFSRHLAWTHTVDTSSHFTLYRLALDPKDPRRYLVDGRSLPLEEKSVAIEVRGADGKLSRVEHKVYQSIYGPLVVWPGKLDWNRSEAYALRDANLENTRVLQQWYSINQASDVADLRRRVEALQGIPWVNTLAADEQGNALYMNQSVVPYLKPELIPACAIPQLVAEGLPALQGQDSRCAWSRDPAAAQAGITPAAQLPVLLRRDFVQNSNDSAWLTNPASPLQGFSPLVSQEKPIGPRARYALSRLQGKQPLEAKTLEEMVTANHVFSADQVLPDLLRLCRDNQGEKSLARACAALAQWDRGANLDSGSGFVYFQRFMQRFAELDGAWKEPFDAQRPLDTPQGIALDRPQVATQVRQALADAAAEVEKSGIPDGARWGDLQVSTRGQERIAIPGGDGHFGVYNAIQSVRKGDHLEVVGGTSYIQLVTFPEEGPKARGLLAFSQSSDPRSPHYRDQTELFSRQQWQTLPFSDRQIDADPQLQRLSIRE", "values": [
      {"measurement": "Km", "setting": "[1]", "value": "(1.13 ± 0.42) × 10^2 μM"},
      {"measurement": "Km", "setting": "[2]", "value": "98.1 ± 34.1", "unit": "µM"},
      {"measurement": "Km", "setting": "[3]", "value": "(2.35 ± 0.07) × 10^2 μM"},
      {"measurement": "kcat", "setting": "[3]", "value": "5.23 ± 0.55", "unit": "s⁻¹"},
      {"measurement": "kcat/Km", "setting": "[3]", "value": "22200 ± 4000", "unit": "M⁻¹ s⁻¹"},
      {"measurement": "Km", "setting": "[4]", "value": "(1.18 ± 0.34) × 10^2 μM"}
    ]}
  ]
}
